Experimental data reported in article PMC10771490, “The structure of a tetrameric septin complex reveals a hydrophobic element essential for NC-interface integrity” (Communications Biology, 2024).
Where a chain is given by its changes, count along the chain named. Names and notes keep the numbering of the source.

B1: Cdc10_(G30-R322) (domain or fragment, Saccharomyces cerevisiae, UniProt P25342 30-322, looked up)
chain: GFQFNIMVVGQSGLGKSTLINTLFASHLIDSATGDDISALPVTKTTEMKISTHTLVEDRVRLNINVIDTPGFGDFIDNSKAWEPIVKYIKEQHSQYLRKELTAQRERFITDTRVHAILYFLQPNGKELSRLDVEALKRLTEIANVIPVIGKSDTLTLDERTEFRELIQNEFEKYNFKIYPYDSEELTDEELELNRSVRSIIPFAVVGSENEIEINGETFRGRKTRWSAINVEDINQCDFVYLREFLIRTHLQDLIETTSYIHYEGFRARQLIALKENANSRSSAHMSSNAIQR
notes: Cdc10, septin of Saccharomyces cerevisiae, residues G30-R322 (lacks the α0-helix); also called Cdc10 lacking the α0-helix; Cdc10 of the truncated tetramer; source: E. coli BL21DE3, coexpressed with the other subunits, purified (HisTrap IMAC, anion exchange, SEC)
B2: Cdc12_(M1-G314) (domain or fragment, Saccharomyces cerevisiae, UniProt P32468 1-314, looked up)
chain: MSAATATAAPVPPPVGISNLPNQRYKIVNEEGGTFTVMLCGESGLGKTTFINTLFQTVLKRADGQQHRQEPIRKTVEIDITRALLEEKHFELRVNVIDTPGFGDNVNNNKAWQPLVDFIDDQHDSYMRQEQQPYRTKKFDLRVHAVLYFIRPTGHGLKPIDIETMKRLSTRANLIPVIAKADTLTAQELQQFKSRIRQVIEAQEIRIFTPPLDADSKEDAKSGSNPDSAAVEHARQLIEAMPFAIVGSEKKFDNGQGTQVVARKYPWGLVEIENDSHCDFRKLRALLLRTYLLDLISTTQEMHYETYRRLRLEG
notes: Cdc12, septin of Saccharomyces cerevisiae, residues M1-G314 (C-terminal extension removed); source: E. coli BL21DE3, coexpressed with the other subunits, purified (HisTrap IMAC, anion exchange, SEC)
B3: Cdc10_(L27A) (natural protein, Saccharomyces cerevisiae, UniProt P25342 1-322, looked up)
chain: MDPLSSVQPASYVGFDTITNQIEHRLAKKGFQFNIMVVGQSGLGKSTLINTLFASHLIDSATGDDISALPVTKTTEMKISTHTLVEDRVRLNINVIDTPGFGDFIDNSKAWEPIVKYIKEQHSQYLRKELTAQRERFITDTRVHAILYFLQPNGKELSRLDVEALKRLTEIANVIPVIGKSDTLTLDERTEFRELIQNEFEKYNFKIYPYDSEELTDEELELNRSVRSIIPFAVVGSENEIEINGETFRGRKTRWSAINVEDINQCDFVYLREFLIRTHLQDLIETTSYIHYEGFRARQLIALKENANSRSSAHMSSNAIQR
notes: Cdc10, septin of Saccharomyces cerevisiae, hydrophobic crest mutant (position 15 of the motif); Compared with the wildtype octamer; source: E. coli BL21DE3, co-expressed as septin complex, purified (IMAC, IEX)
B4: Cdc10, native, non-truncated (wild type) (natural protein, Saccharomyces cerevisiae, UniProt P25342 1-322, looked up)
chain: B3 chain with A27L
notes: Cdc10, septin of Saccharomyces cerevisiae, native, non-truncated; An S-tag is named on Cdc10 only for the Western blots of the disulfide mutants; also called Cdc10 of the untruncated octamer; source: E. coli BL21DE3, co-expressed with the other full-length subunits, purified (IMAC, IEX)
B5: Cdc10 Q21C/Q281C (disulfide bridge mutant) (natural protein, Saccharomyces cerevisiae, UniProt P25342 1-322, looked up)
chain: B3 chain with Q21C, A27L, Q281C
notes: source: E. coli T7-SHuffle Express, co-expressed with the other full-length subunits, purified (IMAC, non-reducing buffers)
B6: Cdc10 L27A in the disulfide bridge mutant A132C/L300C (natural protein, Saccharomyces cerevisiae, UniProt P25342 1-322, looked up)
chain: B3 chain with A132C, L300C
notes: Cdc10, septin of Saccharomyces cerevisiae, disulfide bridge mutant A132C/L300C with L27A; also called L27A (disulfide mutant); source: E. coli T7-SHuffle Express, co-expressed with the other full-length subunits, purified (IMAC, non-reducing buffers)
B7: Cdc10 L26A (natural protein, Saccharomyces cerevisiae, UniProt P25342 1-322, looked up)
chain: B3 chain with L26A, A27L
notes: Cdc10, septin of Saccharomyces cerevisiae, mutant of the non-conserved position 14 of the hydrophobic crest motif; Compared with the wildtype octamer; source: E. coli BL21DE3, co-expressed as septin complex, purified (IMAC, IEX)
B8: Cdc10 A132C/L300C (disulfide bridge mutant) (natural protein, Saccharomyces cerevisiae, UniProt P25342 1-322, looked up)
chain: B3 chain with A27L, A132C, L300C
notes: also called Cdc10^A_(A132)-Cdc10^B_(L300); source: E. coli T7-SHuffle Express, co-expressed with the other full-length subunits, purified (IMAC, non-reducing buffers)
B9: Cdc10 T19C/E23C (disulfide bridge mutant) (natural protein, Saccharomyces cerevisiae, UniProt P25342 1-322, looked up)
chain: B3 chain with T19C, E23C, A27L
notes: Cdc10, septin of Saccharomyces cerevisiae, native, non-truncated, with two cysteines for a disulfide between the two α0-helices; also called T19C and E23C; source: E. coli T7-SHuffle Express, co-expressed with the other full-length subunits, purified (IMAC, non-reducing buffers)
B10: Cdc10 L26A in the disulfide bridge mutant A132C/L300C (natural protein, Saccharomyces cerevisiae, UniProt P25342 1-322, looked up)
chain: B3 chain with L26A, A27L, A132C, L300C
notes: Cdc10, septin of Saccharomyces cerevisiae, disulfide bridge mutant A132C/L300C with L26A; also called L26A (disulfide mutant); source: E. coli T7-SHuffle Express, co-expressed with the other full-length subunits, purified (IMAC, non-reducing buffers)
B11: Cdc10_(M1-R322) (natural protein, Saccharomyces cerevisiae, UniProt P25342 1-322, looked up)
chain: B3 chain with A27L
notes: Cdc10, septin of Saccharomyces cerevisiae, residues M1-R322; kept apart from m6 because it stood with truncated partner subunits; also called Cdc10 with the α0-helix added, in the otherwise truncated complex; source: E. coli BL21DE3, coexpressed with Shs1_(G21-S339), Cdc12_(M1-G314) and Cdc3_(Q81-A410), purified (IMAC, IEX)

Legend:
Cdc3_(Q81-A410) [1] = target: T1, Cdc3_(Q81-A410) (Saccharomyces cerevisiae, UniProt P32457 81-410); test: crystal structure; coexpressed tetrameric complex loaded with GTP before crystallization; sitting-drop vapor diffusion, 20% PEG 5000, 300 mM ammoniumsulfate, 100 mM Bis-Tris pH 6.5, 20 °C; 3.24 Å, space group C 1 2 1, a tetramer in the asymmetric unit; conditions: both partners purified
T1 construct: Cdc3, septin of Saccharomyces cerevisiae, residues Q81-A410 (extensions removed); source: E. coli BL21DE3, coexpressed with the other subunits, purified (HisTrap IMAC, anion exchange, SEC)
T1 sequence (looked up): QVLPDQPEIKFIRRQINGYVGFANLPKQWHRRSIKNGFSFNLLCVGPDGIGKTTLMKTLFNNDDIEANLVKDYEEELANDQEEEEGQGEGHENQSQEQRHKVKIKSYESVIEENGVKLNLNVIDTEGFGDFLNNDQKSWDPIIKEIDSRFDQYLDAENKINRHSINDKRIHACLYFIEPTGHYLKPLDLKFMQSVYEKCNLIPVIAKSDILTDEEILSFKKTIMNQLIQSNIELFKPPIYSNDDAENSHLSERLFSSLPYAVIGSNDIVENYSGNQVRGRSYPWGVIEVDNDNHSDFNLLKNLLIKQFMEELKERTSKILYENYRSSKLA

Shs1_(G21-S339) = target: T2, Shs1_(G21-S339) (Saccharomyces cerevisiae, UniProt Q07657 21-339); test: as above; conditions: both partners purified
T2 construct: Shs1, septin of Saccharomyces cerevisiae, residues G21-S339 (unstructured extensions removed); The complex was purified on a HisTrap column; source: E. coli BL21DE3, coexpressed with the other subunits, purified (HisTrap IMAC, anion exchange, SEC)
T2 sequence (looked up): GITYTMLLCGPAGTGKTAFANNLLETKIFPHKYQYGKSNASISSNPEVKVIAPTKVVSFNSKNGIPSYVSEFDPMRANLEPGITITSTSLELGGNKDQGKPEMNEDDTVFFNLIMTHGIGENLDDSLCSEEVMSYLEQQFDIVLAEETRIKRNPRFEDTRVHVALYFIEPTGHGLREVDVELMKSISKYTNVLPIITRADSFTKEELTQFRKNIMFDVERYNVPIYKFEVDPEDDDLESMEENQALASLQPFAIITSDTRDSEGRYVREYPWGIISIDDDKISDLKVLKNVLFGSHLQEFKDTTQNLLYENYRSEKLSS

[2] = target: the molecule itself; test: SEC; analytical SEC of yeast septin complexes purified by IMAC and IEX; Superose 6, 25 mM Tris pH 8.0, 300 mM NaCl; elution compared with tetramer and octamer references
[3] = target: the molecule itself; test: cross-linking; engineered cysteine pairs across the Cdc10-Cdc10 NC-interface; complexes expressed in E. coli T7-SHuffle Express, purified by IMAC in non-reducing buffers, SDS-PAGE with and without β-Mercaptoethanol, Western blot against the S-tag on Cdc10
Cdc3_(Q81-A410) [4] = target: T1, Cdc3_(Q81-A410); test: SEC; analytical SEC of yeast septin complexes purified by IMAC and IEX; Superose 6, 25 mM Tris pH 8.0, 300 mM NaCl; elution compared with tetramer and octamer references; conditions: both partners purified

Row | Binder | binding result [2] | binding result [3] | also measured
1 | B1 | – | – | binding result (Cdc3_(Q81-A410) [1]): binds
2 | B2 | – | – | binding result (Cdc3_(Q81-A410) [1]): binds; binding result (Shs1_(G21-S339)): binds
3 | B3 | binds | – | –
4 | B4 | binds | – | –
5 | B5 | – | binds | –
6 | B6 | – | binds | –
7 | B7 | binds | – | –
8 | B8 | – | binds | –
9 | B9 | – | binds | –
10 | B10 | – | binds | –
11 | B11 | binds | – | binding result (Cdc3_(Q81-A410) [4]): binds
